From the Human Domainome abundance scans (Beltran et al. 2025) come the findings set out here.

± gives the uncertainty stated by the source.

To fix the notation:
B1: Segment polarity protein dishevelled homolog DVL-3, residues 2 to 81; numbered along this chain, Q92997 (parent)
chain: GETKIIYHLDGQETPYLVKLPLPAERVTLADFKGVLQRPSYKFFFKSMDDDFGVVKEEISDDNAKLPCFNGRVVSWLVSA

This data set covers variants of B1. Briefly: abundance fitness (aPCA) (normalised: wild type 0, dead -1); higher = more abundant; growth selection in yeast, the domain comes from the species named. The note with it: Homo sapiens.
With GETKIIYHLDGQETPYLVKLPLFAERVTLADFKGVLQRPSYKFFFKSMDDDFGVVKEEISDDNAKLPCFNGRVVSWLVSA, the abundance fitness was -0.405 ± 0.14.

In the case of GETKIIYHLDGQETPYLVKLPLVAERVTLADFKGVLQRPSYKFFFKSMDDDFGVVKEEISDDNAKLPCFNGRVVSWLVSA, the abundance fitness was -0.739 ± 0.1.

For GETKIIYHLDGQETPYLVKLPLLAERVTLADFKGVLQRPSYKFFFKSMDDDFGVVKEEISDDNAKLPCFNGRVVSWLVSA, the abundance fitness is -0.682 ± 0.1.

Regarding GETKIIYHLDGQETPYLVKLPLKAERVTLADFKGVLQRPSYKFFFKSMDDDFGVVKEEISDDNAKLPCFNGRVVSWLVSA, the abundance fitness was -0.671 ± 0.12.

Turning to GETKIIYHLDGQETPYLVKLPLNAERVTLADFKGVLQRPSYKFFFKSMDDDFGVVKEEISDDNAKLPCFNGRVVSWLVSA, the abundance fitness was -0.833 ± 0.23.

Consider GETKIIYHLDGQETPYLVKLPLEAERVTLADFKGVLQRPSYKFFFKSMDDDFGVVKEEISDDNAKLPCFNGRVVSWLVSA, for which the abundance fitness is -0.383 ± 0.085.

Regarding GETKIIYHLDGQETPYLVKLPLYAERVTLADFKGVLQRPSYKFFFKSMDDDFGVVKEEISDDNAKLPCFNGRVVSWLVSA, the abundance fitness is -0.517 ± 0.21.

With GETKIIYHLDGQETPYLVKLPLDAERVTLADFKGVLQRPSYKFFFKSMDDDFGVVKEEISDDNAKLPCFNGRVVSWLVSA, the abundance fitness was -0.469 ± 0.13.

Regarding GETKIIYHLDGQETPYLVKLPLRAERVTLADFKGVLQRPSYKFFFKSMDDDFGVVKEEISDDNAKLPCFNGRVVSWLVSA, the abundance fitness was -0.625 ± 0.069.

For GETKIIYHLDGQETPYLVKLPLWAERVTLADFKGVLQRPSYKFFFKSMDDDFGVVKEEISDDNAKLPCFNGRVVSWLVSA, the abundance fitness is -0.863 ± 0.14.

On to GETKIIYHLDGQETPYLVKLPLHAERVTLADFKGVLQRPSYKFFFKSMDDDFGVVKEEISDDNAKLPCFNGRVVSWLVSA, for which the abundance fitness is -0.55 ± 0.18.

For the variant GETKIIYHLDGQETPYLVKLPLMAERVTLADFKGVLQRPSYKFFFKSMDDDFGVVKEEISDDNAKLPCFNGRVVSWLVSA, the abundance fitness is -0.972 ± 0.2.

As to GETKIIYHLDGQETPYLVKLPLGAERVTLADFKGVLQRPSYKFFFKSMDDDFGVVKEEISDDNAKLPCFNGRVVSWLVSA, the abundance fitness is -0.73 ± 0.082.

Regarding GETKIIYHLDGQETPYLVKLPLIAERVTLADFKGVLQRPSYKFFFKSMDDDFGVVKEEISDDNAKLPCFNGRVVSWLVSA, the abundance fitness was -0.112 ± 0.14.

As to GETKIIYHLDGQETPYLVKLPLQAERVTLADFKGVLQRPSYKFFFKSMDDDFGVVKEEISDDNAKLPCFNGRVVSWLVSA, the abundance fitness is -0.731 ± 0.13.

As for GETKIIYHLDGQETPYLVKLPLCAERVTLADFKGVLQRPSYKFFFKSMDDDFGVVKEEISDDNAKLPCFNGRVVSWLVSA, the abundance fitness is -0.79 ± 0.18.

On to GETKIIYHLDGQETPYLVKLPLAAERVTLADFKGVLQRPSYKFFFKSMDDDFGVVKEEISDDNAKLPCFNGRVVSWLVSA, for which the abundance fitness is -0.395 ± 0.089.

Turning to GETKIIYHLDGQETPYLVKLPLTAERVTLADFKGVLQRPSYKFFFKSMDDDFGVVKEEISDDNAKLPCFNGRVVSWLVSA, the abundance fitness was -0.862 ± 0.14.

On to GETKIIYHLDGQETPYLVKLFLPAERVTLADFKGVLQRPSYKFFFKSMDDDFGVVKEEISDDNAKLPCFNGRVVSWLVSA, for which the abundance fitness was -0.588 ± 0.18.

For GETKIIYHLDGQETPYLVKLLLPAERVTLADFKGVLQRPSYKFFFKSMDDDFGVVKEEISDDNAKLPCFNGRVVSWLVSA, the abundance fitness was -0.758 ± 0.088.

In the case of GETKIIYHLDGQETPYLVKLQLPAERVTLADFKGVLQRPSYKFFFKSMDDDFGVVKEEISDDNAKLPCFNGRVVSWLVSA, the abundance fitness was -0.269 ± 0.084.

Regarding GETKIIYHLDGQETPYLVKLWLPAERVTLADFKGVLQRPSYKFFFKSMDDDFGVVKEEISDDNAKLPCFNGRVVSWLVSA, the abundance fitness was -0.712 ± 0.11.

For GETKIIYHLDGQETPYLVKLHLPAERVTLADFKGVLQRPSYKFFFKSMDDDFGVVKEEISDDNAKLPCFNGRVVSWLVSA, the abundance fitness was -0.196 ± 0.1.

Take GETKIIYHLDGQETPYLVKLILPAERVTLADFKGVLQRPSYKFFFKSMDDDFGVVKEEISDDNAKLPCFNGRVVSWLVSA: the abundance fitness is -0.561 ± 0.17.

Regarding GETKIIYHLDGQETPYLVKLRLPAERVTLADFKGVLQRPSYKFFFKSMDDDFGVVKEEISDDNAKLPCFNGRVVSWLVSA, the abundance fitness is -0.575 ± 0.066.

For GETKIIYHLDGQETPYLVKLKLPAERVTLADFKGVLQRPSYKFFFKSMDDDFGVVKEEISDDNAKLPCFNGRVVSWLVSA, the abundance fitness was -0.449 ± 0.092.

For the variant GETKIIYHLDGQETPYLVKLCLPAERVTLADFKGVLQRPSYKFFFKSMDDDFGVVKEEISDDNAKLPCFNGRVVSWLVSA, the abundance fitness was -0.391 ± 0.094.

For the variant GETKIIYHLDGQETPYLVKLTLPAERVTLADFKGVLQRPSYKFFFKSMDDDFGVVKEEISDDNAKLPCFNGRVVSWLVSA, the abundance fitness is -0.592 ± 0.1.

As for GETKIIYHLDGQETPYLVKLYLPAERVTLADFKGVLQRPSYKFFFKSMDDDFGVVKEEISDDNAKLPCFNGRVVSWLVSA, the abundance fitness is -0.693 ± 0.2.

For the variant GETKIIYHLDGQETPYLVKLELPAERVTLADFKGVLQRPSYKFFFKSMDDDFGVVKEEISDDNAKLPCFNGRVVSWLVSA, the abundance fitness is -0.293 ± 0.074.

For GETKIIYHLDGQETPYLVKLMLPAERVTLADFKGVLQRPSYKFFFKSMDDDFGVVKEEISDDNAKLPCFNGRVVSWLVSA, the abundance fitness was -0.426 ± 0.091.

Consider GETKIIYHLDGQETPYLVKLVLPAERVTLADFKGVLQRPSYKFFFKSMDDDFGVVKEEISDDNAKLPCFNGRVVSWLVSA, for which the abundance fitness is -0.789 ± 0.087.

With GETKIIYHLDGQETPYLVKLSLPAERVTLADFKGVLQRPSYKFFFKSMDDDFGVVKEEISDDNAKLPCFNGRVVSWLVSA, the abundance fitness was -0.313 ± 0.069.

Consider GETKIIYHLDGQETPYLVKLDLPAERVTLADFKGVLQRPSYKFFFKSMDDDFGVVKEEISDDNAKLPCFNGRVVSWLVSA, for which the abundance fitness was -0.253 ± 0.096.
